In the supplement of paper PMC9112550, “Optimization of the antimicrobial peptide Bac7 by deep mutational scanning” (BMC Biology, 2022):

Each sequence was assayed on Escherichia coli TOP10 (assay: shrunken log2 fold change of peptide-encoding DNA abundance (4.5 h post-induction vs induction); higher = less antimicrobial activity (less host growth inhibition)). Conditions: time post-induction: 4.5 h; library: site-saturation at positions 5, 18, 19, 20.
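Also: peptides expressed intracellularly from a pBAD plasmid library in pooled LB shake-flask culture, induced with 0.3% L-arabinose, DNA abundance read by NGS, three biological replicates, DESeq2 with apeglm shrinkage.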

Row | Sequence | shrunken log2 fold change
1 | RRIRHRPPRLPRPRPRPDTYPRP | -0.24
2 | RRIRHRPPRLPRPRPRPDVQPRP | 0.0591
3 | RRIRHRPPRLPRPRPRPDYRPRP | -0.127
4 | RRIRHRPPRLPRPRPRPECFPRP | -0.0176
5 | RRIRHRPPRLPRPRPRPEDPPRP | 0.0512
6 | RRIRHRPPRLPRPRPRPEDYPRP | 0.0112
7 | RRIRHRPPRLPRPRPRPEFGPRP | 0.308
8 | RRIRHRPPRLPRPRPRPEGDPRP | 0.383
9 | RRIRHRPPRLPRPRPRPEGGPRP | -0.0289
10 | RRIRHRPPRLPRPRPRPEGYPRP | -0.124
11 | RRIRHRPPRLPRPRPRPEHRPRP | -0.137
12 | RRIRHRPPRLPRPRPRPEHTPRP | -0.328
13 | RRIRHRPPRLPRPRPRPEHVPRP | 0.0342
14 | RRIRHRPPRLPRPRPRPEIDPRP | 0.0729
15 | RRIRHRPPRLPRPRPRPEINPRP | -0.253
16 | RRIRHRPPRLPRPRPRPEKEPRP | -0.00451
17 | RRIRHRPPRLPRPRPRPEKFPRP | -0.0202
18 | RRIRHRPPRLPRPRPRPEKTPRP | 0.115
19 | RRIRHRPPRLPRPRPRPELLPRP | 0.06
20 | RRIRHRPPRLPRPRPRPELQPRP | 0.07
21 | RRIRHRPPRLPRPRPRPELSPRP | 0.252
22 | RRIRHRPPRLPRPRPRPEMYPRP | 0.000706
23 | RRIRHRPPRLPRPRPRPEQFPRP | 0.000995
24 | RRIRHRPPRLPRPRPRPERGPRP | 1.02
25 | RRIRHRPPRLPRPRPRPESLPRP | -0.245

Row | Sequence | shrunken log2 fold change
26 | RRIRHRPPRLPRPRPRPESMPRP | 0.0353
27 | RRIRHRPPRLPRPRPRPETQPRP | -0.137
28 | RRIRHRPPRLPRPRPRPEVEPRP | -0.00133
29 | RRIRHRPPRLPRPRPRPEVTPRP | 0.05
30 | RRIRHRPPRLPRPRPRPEWRPRP | -0.0322
31 | RRIRHRPPRLPRPRPRPEWTPRP | 0.0291
32 | RRIRHRPPRLPRPRPRPEYNPRP | -0.329
33 | RRIRHRPPRLPRPRPRPEYPPRP | 0.0664
34 | RRIRHRPPRLPRPRPRPEYQPRP | -0.3
35 | RRIRHRPPRLPRPRPRPFAVPRP | -1.08
36 | RRIRHRPPRLPRPRPRPFEKPRP | -0.0199
37 | RRIRHRPPRLPRPRPRPFFHPRP | -0.454
38 | RRIRHRPPRLPRPRPRPFFKPRP | -0.149
39 | RRIRHRPPRLPRPRPRPFFMPRP | -0.564
40 | RRIRHRPPRLPRPRPRPFFQPRP | -0.202
41 | RRIRHRPPRLPRPRPRPFHHPRP | 0.0477
42 | RRIRHRPPRLPRPRPRPFHQPRP | -0.01
43 | RRIRHRPPRLPRPRPRPFKEPRP | -0.289
44 | RRIRHRPPRLPRPRPRPFKNPRP | -0.0803
45 | RRIRHRPPRLPRPRPRPFKWPRP | -0.0376
46 | RRIRHRPPRLPRPRPRPFLSPRP | -0.187
47 | RRIRHRPPRLPRPRPRPFPHPRP | 0.188
48 | RRIRHRPPRLPRPRPRPFQLPRP | -0.0386
49 | RRIRHRPPRLPRPRPRPFQPPRP | -0.135
50 | RRIRHRPPRLPRPRPRPFRIPRP | -0.127

Row | Sequence | shrunken log2 fold change
51 | RRIRHRPPRLPRPRPRPFSMPRP | -0.0138
52 | RRIRHRPPRLPRPRPRPFSWPRP | -0.0533
53 | RRIRHRPPRLPRPRPRPFTQPRP | -0.0771
54 | RRIRHRPPRLPRPRPRPFVAPRP | 1.81
55 | RRIRHRPPRLPRPRPRPFVHPRP | -0.836
56 | RRIRHRPPRLPRPRPRPFYFPRP | -0.355
57 | RRIRHRPPRLPRPRPRPFYMPRP | -0.292
58 | RRIRHRPPRLPRPRPRPGAWPRP | 0.265
59 | RRIRHRPPRLPRPRPRPGCLPRP | -0.278
60 | RRIRHRPPRLPRPRPRPGDDPRP | -0.044
61 | RRIRHRPPRLPRPRPRPGEYPRP | -0.219
62 | RRIRHRPPRLPRPRPRPGFKPRP | -0.206
63 | RRIRHRPPRLPRPRPRPGGTPRP | 0.0131
64 | RRIRHRPPRLPRPRPRPGIKPRP | 0.0126
65 | RRIRHRPPRLPRPRPRPGKTPRP | -0.031
66 | RRIRHRPPRLPRPRPRPGLIPRP | -0.234
67 | RRIRHRPPRLPRPRPRPGLMPRP | -0.162
68 | RRIRHRPPRLPRPRPRPGNPPRP | 0.0424
69 | RRIRHRPPRLPRPRPRPGNWPRP | -0.0354
70 | RRIRHRPPRLPRPRPRPGPDPRP | -0.227
71 | RRIRHRPPRLPRPRPRPGRHPRP | -0.0683
72 | RRIRHRPPRLPRPRPRPGRIPRP | 0.136
73 | RRIRHRPPRLPRPRPRPGSDPRP | -0.014
74 | RRIRHRPPRLPRPRPRPGTSPRP | -0.0565
75 | RRIRHRPPRLPRPRPRPGVTPRP | 0.00739
